{
  "source": "patent US20240141045A1",
  "binders": {"B1": {"name": "Anti-PD1 (VH7-VL6) scFv-Fc-ADA2 (Fc fusion, part only; not given: scFv linker and Fc, not shown: a dimerising Fc or GST)", "scFv (part 1 of 2), part": "QVQLVQSGVEVKKPGASVKVSCKASGYTFTNYYMYWVRQAPGQGLEWMGGINPSNGGTNFNEKFKNRVTLTTDSSTTTAYMELKSLQFDDTAVYYCARRDYRFDMGFDYWGQGTTVTVSSEIVLTQSPATLSLSPGERATLSCRASKGVSTSGYSYLHWYQQKPGQAPRLLIYLASYLESGVPARFSGSGSGTDFTLTISSLEPEDFAVYYCQHSRDLPLTFGGGTKVEIK", "scFv (part 2 of 2), part": "GGGGSGGGGSIDETRAHLLLKEKMMRLGGRLVLNTKEELANERLMTLKIAEMKEAMRTLIFPPSMHFFQAKHLIERSQVFNILRMMPKGAALHLHDIGIVTMDWLVRNVTYRPHCHICFTPRGIMQFRFAHPTPRPSEKCSKWILLEDYRKRVQNVTEFDDSLLRNFTLVTQHPEVIYTNQNVVWSKFETIFFTISGLIHYAPVFRDYVFRSMQEFYEDNVLYMEIRARLLPVYELSGEHHDEEWSVKTYQEVAQKFVETHPEFIGIKIIYSDHRSKDVAVIAESIRMAMGLRIKFPTVVAGFDLVGHEDTGHSLHDYKEALMIPAKDGVKLPYFFHAGETDWQGTSIDRNILDALMLNTTRIGHGFALSKHPAVRTYSWKKDIPIEVCPISNQVLKLVSDLRNHPVATLMATGHPMVISSDDPAMFGAKGLSYDFYEVFMGIGGMKADLRTLKQLAMNSIKYSTLLESEKNTFMEIWKKRWDKFIADVATK"}},
  "biological_target": "PD-1 Fc fusion protein (UniProt Q15116)",
  "sequence (Q15116 25-167 limits assumed)": "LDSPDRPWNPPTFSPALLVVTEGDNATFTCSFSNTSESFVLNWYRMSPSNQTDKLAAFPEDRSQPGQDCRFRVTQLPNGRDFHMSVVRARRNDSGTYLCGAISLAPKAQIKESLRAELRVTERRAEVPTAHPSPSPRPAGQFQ",
  "experiment": "SPR (Biacore 3000), recombinant PD-1 Fc immobilised on CM5 chip, fusion protein injected",
  "data": [
    {"binder": "B1", "values": [
      {"measurement": "Kd", "value": 0.563, "unit": "nM"}
    ]}
  ]
}
